From patent publication US7803572B2, “Protease detection assay” (Atlas Genetics, Ltd., priority 2003, dated 2010) come the findings set out here.

One series has as its target T1, papaya latex papain (Carica papaya, UniProt P00784).
T1 construct: purchased Sigma; host or cells: papaya latex
T1 sequence (P00784 134-345): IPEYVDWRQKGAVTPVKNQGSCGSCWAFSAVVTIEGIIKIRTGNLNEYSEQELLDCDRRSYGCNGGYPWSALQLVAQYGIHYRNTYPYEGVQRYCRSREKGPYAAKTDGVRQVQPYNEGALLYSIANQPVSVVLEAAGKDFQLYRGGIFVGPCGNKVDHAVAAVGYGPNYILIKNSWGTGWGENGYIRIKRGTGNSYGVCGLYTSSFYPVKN
Nature of the series: Digestion of FcU-BSA with papain, differential pulse voltammetry. Type of series: biochemical. The protocol: (§1) Protease assays were performed as follows unless stated otherwise. […] Samples were incubated at 37° C. for 1 hour.
A digestion of FcU-BSA with papain was carried out as described above.

The next series addresses T2, papain (Carica papaya, UniProt P00784).
T2 construct: purchased Sigma; host or cells: papaya latex
T2 sequence (P00784 134-345): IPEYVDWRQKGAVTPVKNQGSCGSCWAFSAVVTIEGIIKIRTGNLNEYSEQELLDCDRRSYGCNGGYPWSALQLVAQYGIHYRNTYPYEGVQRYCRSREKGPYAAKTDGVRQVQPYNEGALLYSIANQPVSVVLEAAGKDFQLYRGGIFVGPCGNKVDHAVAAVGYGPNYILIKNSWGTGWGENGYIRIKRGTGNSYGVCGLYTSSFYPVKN
Nature of the series: Amperometric analysis of papain digestion. In kind it is biochemical. Conditions: amperometric time course trace, FIG. 18. The protocol: (§2) Four digestion reactions were carried out with real-time amperometric analysis. […] Tryspin was resuspended in HCl (1 mM, pH 3.0), papain and carboxypeptidase were resuspended in NaCl (100 mM). […] The amperometry conditions were as set out in Tables 2 and 3.
(§3) In FIG. 18, there is shown the amperometric time course trace for the papain digestion of FcU-BSA. […] As the movement of the species present in the solution reaches a steady state, the current response appears to decay. […] The amperometric time course trace for the trypsin digestion of FcU-BSA is not illustrated in the drawings but was analogous.

Series [1] concerns the target T3, porcine pancreas trypsin (Sus scrofa, UniProt P00761).
T3 construct: purchased Sigma; host or cells: porcine pancreas
The series is described as follows: Digestion of labelled protein with trypsin, differential pulse voltammetry. Type of series: biochemical. The protocol: as §1
A digestion of Fc-BSA with trypsin was carried out as described above. […] The positive reaction has a peak position of 435 mV and a peak height of 4.58×10^−7 A; the no trypsin control reaction has a peak position of 432 mV and a peak height of 2.55×10^−8 A.
A digestion of unlabelled BSA with trypsin was carried out in the same manner as for the labelled molecules as described above. The differential pulse voltammogram results are shown in FIG. 10 in which (a) is the trace for a no-trypsin control reaction and (b) is the trace for trypsin BSA reaction.
A digestion of FcU-BSA with trypsin was carried out as described above. […] The positive reaction has a peak position of 97 mV and a peak height of 5.01×10^−7 A; there was no peak in the no-trypsin control reaction. […]
Five digestions of Fc-BSA with trypsin were carried out using the protocol described above. As described in the general protocol, 2 μl of enzyme was used for each 200 μl reaction; for reaction (i) 10 mg/ml enzyme solution was used; reaction (ii): 1 mg/ml; reaction (iii) 0.1 mg/ml; reaction (iv) 0.01 mg/ml and reaction (v) was a no-trypsin control. The differential pulse voltammogram results are shown in FIG. 14 with baseline correction.
Five digestions of Fc-BSA with trypsin were carried out using the protocol described above. In reaction (i) the incubation at 37° was carried out for 60 minutes, in reaction (ii) for 15 minutes, in reaction (iii) for 5 minutes, in reaction (iv) for 2 minutes and reaction (v) was a 0 minutes no-trypsin control. The differential pulse voltammogram results are shown in FIG. 15 with baseline correction.

Another series concerns the target T4, trypsin (Sus scrofa, UniProt P00761).
T4 construct: purchased Sigma; host or cells: porcine pancreas
Nature of the series: Amperometric analysis of trypsin digestion. Type of series: biochemical, porcine. Conditions: amperometric time course trace. The procedure:
as §2
In FIG. 17, there is shown the amperometric time course trace for the trypsin digestion of Fc-BSA. […] As the movement of the species present in the solution reaches a steady state, the current response appears to decay.
as §3

The target of series [2] is porcine pancreas trypsin (1120 BAEE units/mg solid) (porcine) (UniProt P00761). Nature of the series: cell-based or functional assay.
The target in series [3] is T5, type I-S soybean trypsin inhibitor, P01070.
T5 chain: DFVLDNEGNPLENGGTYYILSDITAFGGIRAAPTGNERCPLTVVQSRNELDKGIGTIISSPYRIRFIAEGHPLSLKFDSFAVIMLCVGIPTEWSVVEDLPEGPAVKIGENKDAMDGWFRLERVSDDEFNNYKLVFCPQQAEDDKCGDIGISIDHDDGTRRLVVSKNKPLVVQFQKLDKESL

Series [4] has as its target T3, porcine pancreas trypsin. Nature of the series: Effect of a protease inhibitor on electrochemical marker signal (trypsin digestion of Fc-BSA). In kind it is biochemical. The protocol: as §1
Five digestions of Fc-BSA with trypsin were carried out using the protocol described above. In addition, soybean trypsin inhibitor was added to reaction mixtures […]. Solutions of the soybean trypsin inhibitor were prepared by resuspending inhibitor as supplied in deionised water to a concentration of 10 mg/ml and 1 mg/ml as appropriate. No inhibitor was added to reaction (i); 0.5 μl of 1 mg/ml inhibitor solution was added to reaction (ii); […] of 10 mg/ml inhibitor was added to reaction (iii); 5 μl of 10 mg/ml inhibitor solution was added to reaction (iv) and 5 μl of 10 mg/ml inhibitor solution was added to a no-trypsin control reaction. The differential pulse voltammogram results are shown in FIG. 16 with baseline correction.

The mark [5] stands for this setting: positive reaction, 37° C. for 1 hour.
Setting [6] is: positive reaction, 2 μl enzyme (10 mgml^−1), 37° C. for 1 hour.
[7] abbreviates: no-trypsin control reaction with 5 μl of 10 mg/ml inhibitor solution.
The mark [8] stands for this setting: reaction (ii): 0.5 μl of 1 mg/ml inhibitor solution.
Setting [9] is: reaction (iii): 0.51 of 10 mg/ml inhibitor.
The mark [10] stands for this setting: reaction (iv): 5 μl of 10 mg/ml inhibitor solution.

With “FcU-BSA: Bovine serum albumin labelled with 4-(3′-ferrocenylureido)-1-benzoyl groups”, in the series with papaya latex papain (no-papain control reaction), the peak entry was “no peak was found”. Besides, the values for the peak height in the series with papaya latex papain (setting [5]), with porcine pancreas trypsin [1] (no-trypsin control reaction) and with porcine pancreas trypsin [1] (setting [6]) were 2.62×10^−7 A, “no peak” and 5.01×10^−7 A, respectively. For the same molecule, the peak position in the series with papaya latex papain (setting [5]) was determined as 93 mV; with porcine pancreas trypsin [1] (setting [6]), 97 mV. Further, the “faradaic current response over time after addition of the enzyme” value in the series with papain was “increase in current”; in the series with trypsin, “analogous”.
In turn, “type I-S soybean trypsin inhibitor (from UniProt P01070 25-205)” showed a peak height, differential pulse voltammogram of trypsin digestion of Fc-BSA; reaction (ii), 0.5 ul of 1 mg/ml inhibitor solution in the 200 ul reaction (no-inhibitor reaction (i): 2.56x10^-7 A) in series [2] of 2.12e-07 A.
As for “unlabelled BSA: Bovine serum albumin (lyophilised powder, approx. 99%) from Sigma, unlabelled control substrate [reference compound]”, the “peaks in differential pulse voltammogram” value in the series with porcine pancreas trypsin [1] (unlabelled substrate, trypsin reaction and no-trypsin control) was “No peaks were found”.

B1: porcine pancreas trypsin (1120 BAEE units/mg solid) (protein)
chain: IVGGYTCAANSIPYQVSLNSGSHFCGGSLINSQWVVSAAHCYKSRIQVRLGEHNIDVLEGNEQFINAAKIITHPNFNGNTLDNDIMLIKLSSPATLNSRVATVSLPRSCAAAGTECLISGWGNTKSSGSSYPSLLQCLKAPVLSDSSCKSSYPGQITGNMICVGFLEGGKDSCQGDSGGPVVCNGQLQGIVSWGYGCAQKNKPGVYTKVCNYVNWIQQTIAAN
On to B1, for which the “magnitude of signal in the differential pulse voltammogram of trypsin digestion of Fc-BSA” value in series [3] is “the magnitude of signal in the differential pulse voltammogram is strongly dependent on the concentration of inhibitor present in the digestion experiment”.

B2: soybean trypsin inhibitor: type I-S soybean trypsin inhibitor obtained from Sigma (protein)
chain: DFVLDNEGNPLENGGTYYILSDITAFGGIRAAPTGNERCPLTVVQSRNELDKGIGTIISSPYRIRFIAEGHPLSLKFDSFAVIMLCVGIPTEWSVVEDLPEGPAVKIGENKDAMDGWFRLERVSDDEFNNYKLVFCPQQAEDDKCGDIGISIDHDDGTRRLVVSKNKPLVVQFQKLDKESL
On to B2, for which the peak height with porcine pancreas trypsin [4] (setting [7]) is on record as 2.75×10^−8 A; with porcine pancreas trypsin [4] (setting [8]), 2.12×10^−7 A; with porcine pancreas trypsin [4] (setting [9]), 1.60×10^−7 A; in the series with porcine pancreas trypsin [4] (setting [10]), 5.33×10^−8 A. Moreover, the peak position in the series with porcine pancreas trypsin [4] (setting [7]) is reported as 429 mV; with porcine pancreas trypsin [4] (setting [8]) it was 435 mV; with porcine pancreas trypsin [4] (setting [9]), 430 mV; with porcine pancreas trypsin [4] (setting [10]) it was 426 mV.
